Results on 33 substances are retold here after the array DNA melting data of Ke et al..

The data set can be described thus: melting temperature; melt of duplexes. Particulars: sodium 0.0675 M; strand 1 µM.
By Tm is commonly meant the temperature at the midpoint of the melting transition. Take “CGACGTGCTGCATGTGCTG+CAGCACATTGCGCACGTCG ((((((((...((((((((+))))))))...))))))))”: the Tm turned out to be 53.5 °C. As for “CGACGTGCTGCATGTGCTG+CAGCACATAATGCACGTCG ((((((((...((((((((+))))))))...))))))))”, the figure is 50.7 °C; as for “CGACGTGCTTTATGTGCTG+CAGCACATAGAGCACGTCG (((((((((.(((((((((+))))))))).)))))))))”, 55.2 °C. As for “CGACGTGCCCTATGTGCTG+CAGCACATCGGGCACGTCG ((((((((((.((((((((+)))))))).))))))))))”, the figure is 58.7 °C; as for “CGACGTGCACCATGTGCTG+CAGCACATTTAGCACGTCG ((((((((...((((((((+))))))))...))))))))”, 42.2 °C; as for “CGACGTGCCTCATGTGCTG+CAGCACATTATGCACGTCG ((((((((.(.((((((((+)))))))).).))))))))”, 47.7 °C. With “CGACGTGCATAATGTGCTG+CAGCACATTGGGCACGTCG ((((((((..(((((((((+)))))))))..))))))))” the figure was 54.2 °C; with “CGACGTGCTGGATGTGCTG+CAGCACATGTGGCACGTCG ((((((((...((((((((+))))))))...))))))))”, 52.6 °C; with “CGACGTGCACAATGTGCTG+CAGCACATACCGCACGTCG ((((((((...((((((((+))))))))...))))))))”, 44.6 °C. Consider “CGACGTGCAATATGTGCTG+CAGCACATGCTGCACGTCG (((((((((..((((((((+))))))))..)))))))))”, for which the Tm is 50.7 °C.

For “CGACGTGCGGCATGTGCTG+CAGCACATGTTGCACGTCG ((((((((..(((((((((+)))))))))..))))))))”, the Tm amounted to 57.6 °C.

Regarding “CGACGTGCGCGATGTGCTG+CAGCACATTGGGCACGTCG ((((((((.(.((((((((+)))))))).).))))))))”, the midpoint of thermal melting (Tm) is 57.1 °C. With “CGACGTGCACGATGTGCTG+CAGCACATTTTGCACGTCG (((((((((..((((((((+))))))))..)))))))))” the figure was 48.5 °C; with “CGACGTGCCAGATGTGCTG+CAGCACATCGGGCACGTCG (((((((((.(((((((((+))))))))).)))))))))”, 62.2 °C; with “CGACGTGCGGTATGTGCTG+CAGCACATAGCGCACGTCG (((((((((.(((((((((+))))))))).)))))))))”, 62.5 °C. With “CGACGTGCTCCATGTGCTG+CAGCACATACAGCACGTCG (((((((((..((((((((+))))))))..)))))))))” the figure was 49.6 °C. As to “CGACGTGCAGTATGTGCTG+CAGCACATTCGGCACGTCG ((((((((.(.((((((((+)))))))).).))))))))”, the Tm was 53.1 °C. As for “CGACGTGCTACATGTGCTG+CAGCACATACAGCACGTCG (((((((((..((((((((+))))))))..)))))))))”, the figure is 51.5 °C. With “CGACGTGCAGAATGTGCTG+CAGCACATATAGCACGTCG ((((((((...((((((((+))))))))...))))))))” the figure was 50.4 °C.

Turning to “CGACGTGCAGGATGTGCTG+CAGCACATGTAGCACGTCG ((((((((...((((((((+))))))))...))))))))”, the Tm amounted to 50.4 °C. With “CGACGTGCTCGATGTGCTG+CAGCACATGGGGCACGTCG ((((((((.(.((((((((+)))))))).).))))))))” the figure was 54.5 °C. With “CGACGTGCAGCATGTGCTG+CAGCACATCAGGCACGTCG ((((((((...((((((((+))))))))...))))))))”, the Tm is 47.3 °C.

In the case of “CGACGTGCTCCATGTGCTG+CAGCACATGGAGCACGTCG (((((((((((((((((((+)))))))))))))))))))”, the Tm stood at 66.1 °C. With “CGACGTGCGGCATGTGCTG+CAGCACATAGCGCACGTCG (((((((((..((((((((+))))))))..)))))))))” the figure was 55.9 °C; with “CGACGTGCCTCATGTGCTG+CAGCACATCACGCACGTCG ((((((((.(.((((((((+)))))))).).))))))))”, 46.1 °C; with “CGACGTGCCGTATGTGCTG+CAGCACATCAGGCACGTCG (((((((((..((((((((+))))))))..)))))))))”, 57.1 °C. With “CGACGTGCGGGATGTGCTG+CAGCACATCGTGCACGTCG ((((((((..(((((((((+)))))))))..))))))))” the figure was 56.2 °C; with “CGACGTGCCGCATGTGCTG+CAGCACATCCGGCACGTCG ((((((((((.((((((((+)))))))).))))))))))”, 58.2 °C. With “CGACGTGCTACATGTGCTG+CAGCACATTCGGCACGTCG ((((((((...((((((((+))))))))...))))))))” the figure was 49.1 °C; with “CGACGTGCAGCATGTGCTG+CAGCACATTGCGCACGTCG ((((((((...((((((((+))))))))...))))))))”, 52.5 °C. Take “CGACGTGCCATATGTGCTG+CAGCACATACGGCACGTCG (((((((((.(((((((((+))))))))).)))))))))”: the Tm was determined as 55.3 °C. With “CGACGTGCATAATGTGCTG+CAGCACATAAAGCACGTCG ((((((((.(.((((((((+)))))))).).))))))))” the figure was 50.2 °C; with “CGACGTGCTACATGTGCTG+CAGCACATCTCGCACGTCG ((((((((.(.((((((((+)))))))).).))))))))”, 47.2 °C.
